{
  "source": "paper doi:10.1101/2025.01.06.631460",
  "about": "(bioRxiv, 2025)",
  "molecular_target": "the molecule itself",
  "assay": "single molecule photobleaching",
  "data": [
    {"protein": "CNGC14-GFP (natural protein, Arabidopsis thaliana, UniProt Q9SJA4 1-726, looked up) MEFKRDNTVRFYGDEKQTIEVGEKRVPLFKSTTAPFMKQEVLPKKSKTRLKIPRFGRFKVFPENFEIERDKILDPGGDAVLQWNRVFLFWCLVALYVDPLFFFLSSVKRIGRSSCMTTDLKLGIVITFFRTLADLFYVLHIVIKFRTAYVSRTSRVFGRGELVKDPKLIARRYLRSDFIVDLIACLPLPQIVSWFILPSIRSSHSDHTTNALVLIVLVQYIPRLYLIFPLSAEIIKATGVVTTTAWAGAAYNLLQYMLASHILGSAWYLLSIERQATCWKAECHKESVPLQCVTDFFDCGTLHRDDRNNWQNTTVVFSNCDPSNNIQFTFGIFADALTKNVVSSPFLEKYLYCLWFGLQNLSSYGQNLSTSTSVLETMFAILVAIFGLVLFALLIGNMQTYLQSITVRLEEWRLKRRDTEEWMGHRLLPQNLRERVRRFVQYKWLATRGVDEETILHSLPADLRRDIQRHLCLDLVRRVPLFAQMDDQLLDAICERLASSLSTQGNYIVREGDPVTEMLFIIRGKLESSTTNGGRTGFFNSITLRPGDFCGEELLAWALLPKSTVNLPSSTRTVRALEEVEAFALQAGDLKFVANQFRRLHSKKLQHTFRYYSHQWRTWAACFVQVAWRRYKRKKLAKSLSLAESFSSYDEEEAVAVAATEEMSHEGEAQSGAKARHHTSNVKPHFAATILASRFAKNTRRTAHKLKDVEIPMLPKPDEPDFSVDD", "values": [
      {"measurement": "stoichiometry N", "result": 4}
    ]}
  ]
}
